Laboratory results reported in article PMC6255864.

Assays:
[1] = biological target: T1, annexin-V, membrane-bound trimeric form (A5) (human), P08758; experiment: HS-AFM line scanning (HS-AFM-LS); line scanned across one protomer of the non-p6 trimer in the A5 p6-lattice, 2.4 ms per line; dwell-times in each orientation before rotation; conditions: remark: other sources report otherwise
T1 chain: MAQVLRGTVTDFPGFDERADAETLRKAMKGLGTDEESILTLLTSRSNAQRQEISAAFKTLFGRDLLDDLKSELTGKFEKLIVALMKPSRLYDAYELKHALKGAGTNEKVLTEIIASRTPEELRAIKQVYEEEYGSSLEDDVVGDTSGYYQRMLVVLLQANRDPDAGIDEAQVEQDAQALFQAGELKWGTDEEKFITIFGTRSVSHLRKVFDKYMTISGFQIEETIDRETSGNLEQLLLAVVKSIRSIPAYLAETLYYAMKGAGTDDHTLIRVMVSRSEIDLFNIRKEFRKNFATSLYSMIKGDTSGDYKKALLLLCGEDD

[2] = biological target: T1, annexin-V, membrane-bound trimeric form …; experiment: HS-AFM height spectroscopy (HS-AFM-HS); tip on one protomer of the rotating non-p6 trimer at the centre of the hexagonal A5 p6-lattice; dwell-times in the 0° and 60° orientations; captured at 655 kHz; conditions: remark: other sources report otherwise

average dwell-time in the 0° or 60° orientation before rotation [1]: 35 ms
peak of the distribution of state dwell-times before rotation (Gaussian 1 of 3) [1]: 13 ms
peak of the distribution of state dwell-times before rotation (Gaussian 2 of 3) [1]: 41 ms
peak of the distribution of state dwell-times before rotation (Gaussian 3 of 3) [1]: 96 ms
average dwell-time in the 0° or 60° orientation before rotation [2]: 26 ms
B1: annexin-V, membrane-bound trimeric form (A5), P08758 1-320 (natural protein)
chain: MAQVLRGTVTDFPGFDERADAETLRKAMKGLGTDEESILTLLTSRSNAQRQEISAAFKTLFGRDLLDDLKSELTGKFEKLIVALMKPSRLYDAYELKHALKGAGTNEKVLTEIIASRTPEELRAIKQVYEEEYGSSLEDDVVGDTSGYYQRMLVVLLQANRDPDAGIDEAQVEQDAQALFQAGELKWGTDEEKFITIFGTRSVSHLRKVFDKYMTISGFQIEETIDRETSGNLEQLLLAVVKSIRSIPAYLAETLYYAMKGAGTDDHTLIRVMVSRSEIDLFNIRKEFRKNFATSLYSMIKGDTSGDYKKALLLLCGEDD
